Our source for the EC50 (nM), Mouse GLP-1R activation, in vitro cell assay, Emax (%), Mouse GLP-1R activation, in vitro cell assay and EC50 (nM), Human GLP-1R activation, in vitro cell assay values is PMC6412877, “Novel Site-Specific Fatty Chain-Modified GLP-1 Receptor Agonist with Potent Antidiabetic Effects” (Molecules, 2019).

In experiment [1] the target is Mouse GLP-1R (mouse) (UniProt O35659).
Experiment [2] concerns the target Human GLP-1R (human) (UniProt P43220).

Chain of Mouse GLP-1R (mouse) (O35659 22-463): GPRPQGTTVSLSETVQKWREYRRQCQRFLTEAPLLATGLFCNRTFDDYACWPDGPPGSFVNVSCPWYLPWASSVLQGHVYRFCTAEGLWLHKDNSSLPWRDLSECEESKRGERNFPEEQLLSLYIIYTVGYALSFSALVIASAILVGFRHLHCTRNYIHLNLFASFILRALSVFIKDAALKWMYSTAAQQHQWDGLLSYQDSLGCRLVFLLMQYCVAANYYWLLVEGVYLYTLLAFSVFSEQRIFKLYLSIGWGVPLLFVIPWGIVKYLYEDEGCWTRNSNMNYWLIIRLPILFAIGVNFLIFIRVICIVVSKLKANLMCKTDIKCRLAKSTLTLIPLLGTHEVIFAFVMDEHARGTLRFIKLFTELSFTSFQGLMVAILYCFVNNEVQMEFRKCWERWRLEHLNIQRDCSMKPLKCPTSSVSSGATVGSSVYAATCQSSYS
Chain of Human GLP-1R (human) (P43220 24-463): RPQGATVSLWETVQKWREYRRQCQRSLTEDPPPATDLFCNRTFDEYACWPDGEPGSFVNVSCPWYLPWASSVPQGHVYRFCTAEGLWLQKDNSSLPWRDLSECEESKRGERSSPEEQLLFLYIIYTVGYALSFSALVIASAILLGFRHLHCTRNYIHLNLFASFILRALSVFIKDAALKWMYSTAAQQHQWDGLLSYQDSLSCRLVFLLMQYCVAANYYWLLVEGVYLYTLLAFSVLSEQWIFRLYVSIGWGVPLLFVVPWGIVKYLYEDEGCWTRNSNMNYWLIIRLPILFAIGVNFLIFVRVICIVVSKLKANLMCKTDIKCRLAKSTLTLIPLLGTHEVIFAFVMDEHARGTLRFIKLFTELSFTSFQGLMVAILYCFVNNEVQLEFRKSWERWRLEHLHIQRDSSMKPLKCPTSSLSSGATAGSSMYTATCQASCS

In experiment [1], Liraglutide (peptide) had an EC50 (nM), Mouse GLP-1R activation, in vitro cell assay of 0.185 nM and an Emax (%), Mouse GLP-1R activation, in vitro cell assay of 89%.

In experiment [1], “Exendin-4 (from UniProt P26349 48-87) (peptide)” had an Emax (%), Mouse GLP-1R activation, in vitro cell assay of 100%. In experiment [2], this substance registered an EC50 (nM), Human GLP-1R activation, in vitro cell assay of 0.052 nM.
